How the values were obtained:
[1] = test system: NKX2-1+ lung epithelial progenitor cells; assay: SFTPCtdTomato reporter induction in day 15 NKX2-1+ progenitor outgrowth in 3D culture (flow cytometry); type: cell-based, human; conditions: for further SFTPC induction efficiency with addition of the factor: factor added to differentiation media, FIG. 9B
Procedure: Purification of NKX2-1+ Lung Progenitors by Cell Sorting. On day 15 of differentiation, cells were incubated at 37° C. in 0.05% trypsin-EDTA (Invitrogen) for 7-15 minutes, until they reached single cell suspension. Cells were then washed in media containing 10% fetal bovine serum (FBS, ThermoFisher), centrifuged at 300g×5 minutes, and resuspended in sort buffer containing Hank's Balanced Salt Solution (ThermoFisher), 2% FBS, 10 μM Y-27632, and 10 uM calcein blue AM (Life Technologies) for dead cell exclusion. Cells not containing the NKX2-1GFP reporter were subsequently stained with CD47-PerCPCy5.5 and CD26-PE antibodies (mouse monoclonal; Biolegend 1:200; 1×10^6 cells in 100 ul) for 30 minutes at 4° C., washed with PBS, and resuspended in sort buffer. Cells were passed through a 40 um strainer prior to sorting (Falcon). Various live cell populations indicated in the text (i.e. GFP+, GFP−, CD47hi/CD26−,CD47lo) were sorted on a high-speed cell sorter (MoFlo Legacy). Directed Differentiation of NKX2-1+ Lung Progenitor Outgrowth into iAEC2s Day 15 cells, either sorted (as described above) or unsorted (dissociated as described above), were resuspended in undiluted growth factor-reduced matrigel (Corning) at a dilution of 50-100 cells/ul, with droplets ranging in size from 20 ul in 96 well plates to 1 ml in 10 cm tissue culture-treated dishes (Corning). Cells in matrigel suspension were incubated at 37° C. for 20-30 minutes, then warm media was added to the plates.
(§1) Where indicated in the text, outgrowth and distal/alveolar differentiation of cells after day 15 was performed in “CK+DCI” medium, consisting of cSFDM base, with 3 μM CHIR99021, 10 ng/mL rhKGF, and 50 nM dexamethasone (Sigma), 0.1 mM 8-Bromoadenosine 3′,5′-cyclic monophosphate sodium salt (Sigma) and 0.1 mM 3-Isobutyl-1-methylxanthine (IBMX) (Sigma) (DCI). Immediately after replating cells on Day 15 10 μM Y-27632 was added to the medium for 24 hours. Additional growth factors or cytokines were added or withdrawn as indicated in the text, including FGF10, TGFb, EGF, OSM (20 ng/ml), TNFa (10 ng/ml), and IL-1b (10 ng/ml) with other concentrations listed in figure legends (FIGS. 9A, 9B).
Alveolosphere Long Term Culture, Dissociation, and Differentiation. […] These spheres were analyzed as follows: Z-stack images of live alveolospheres were taken and processed on a Keyence (Osaka, Japan) BZ-X700 fluorescence microscope. […] To generate single cell suspensions, cell pellets were incubated in 0.05% trypsin and continued through the trypsin-based dissociation protocol described above, after which they could be passaged into fresh matrigel, analyzed by flow cytometry, or sorted as described above. […]

JAK/STAT3 pathway = assay: Cytokine stimulation of PSC-derived alveolospheres, JAK/STAT3 pathway (Western blot phospho-STAT3, SOCS3 RT-qPCR); type: cell-based, human; conditions: OSM 20 ng/ml
Procedure: as §1
Reverse Transcriptase Quantitative Real Time Polymerase Chain Reaction (RT-qPCR). RT-qPCR was performed as previously described (Hawkins et al. 2017,). Briefly, RNA was isolated according to manufacturer's instructions using the Qiagen miRNeasy mini kit (Qiagen, Venlo, Netherlands). cDNA was generated by reverse transcription of up to 150 ng RNA from each sample using the Applied Biosystems High-Capacity cDNA Reverse Transcription Kit. […] Relative gene expression was calculated based on the average cycle (Ct) value of the technical triplicates, normalized to 18S control, and reported as fold change (2(−ΔΔCT)), with a fold change of 1 being assigned to undifferentiated (day 0) iPSCs or ESCs. […]

B1: BMP4: recombinant human BMP4 (protein, UniProt P12644 293-408, looked up)
Bone morphogenetic protein 4: SPKHHSQRARKKNKNCRRHSLYVDFSDVGWNDWIVAPPGYQAFYCHGDCPFPLADHLNSTNHAIVQTLVNSVNSSIPKACCVPTELSAISMLYLDEYDKVVLKNYQEMVVEGCGCR
With B1 the “further SFTPC induction efficiency with addition of the factor” value [1] was “No consistent further SFTPC induction efficiency”.

B2: FGF10: Recombinant human FGF10 (protein, UniProt O15520 38-208, looked up)
Fibroblast growth factor 10: QALGQDMVSPEATNSSSSSFSSPSSAGRHVRSYNHLQGDVRWRKLFSFTKYFLKIEKNGKVSGTKKENCPYSILEITSVEIGVVAVKAINSNYYLAMNKKGKLYGSKEFNNDCKLKERIEENGYNTYASFNWQHNGRQMYVALNGKGAPRRGQKTRRKNTSAHFLPMVVHS
In the case of B2, the “further SFTPC induction efficiency with addition of the factor” value [1] is reported as “No consistent further SFTPC induction efficiency”.

B3: KGF: Recombinant human KGF, agonist of FGF signaling (protein, UniProt P21781 32-194, looked up)
Fibroblast growth factor 7: CNDMTPEQMATNVNCSSPERHTRSYDYMEGGDIRVRRLFCRTQWYLRIDKRGKVKGTQEMKNNYNIMEIRTVAVGIVAIKGVESEFYLAMNKEGKLYAKKECNEDCNFKELILENHYNTYASAKWTHNGGEMFVALNQKGIPVRGKKTKKEQKTAHFLPMAIT
For B3, the “need for initial induction of the tdTomato reporter” value ([1]; component removed from media, FIG. 9A, 9B) was “dispensable” and the “promoting outgrowth of tdTomato+ cells by day 21, combined with CHIR, compared to FGF10+CHIR” value ([1]; day 21, FIG. 9B) was “more consistent”.

B4: OSM: Recombinant human OSM, cytokine activating the JAK/STAT3 pathway (protein, UniProt P13725 26-221, looked up)
Oncostatin-M: AAIGSCSKEYRVLLGQLQKQTDLMQDTSRLLDPYIRIQGLDVPKLREHCRERPGAFPSEETLRGLGRRGFLQTLNATLGCVLHRLADLEQRLPKAQDLERSGLNIEDLEKLQMARPNILGLRNNIYCMAQLLDNSDTAEPTKAGRGASQPPTPTPASDAFQRKLEGCRFLHGYHRFMHSVGRVFSKWGESPNRSRR
For B4, the “STAT3 signaling (phosphorylated STAT3 protein, SOCS3 mRNA)” value (JAK/STAT3 pathway) was “significant and rapid activation of STAT3 signaling”.

Reference: patent publication US10975357B2, “Methods and compositions related to differentiated lung cells” (TRUSTEES OF BOSTON UNIVERSITY, priority 2017, dated 2021)
